# Columns and labels:
# human PILRA G78 on cells [1] = biological target: T1, human PILRA G78 on cells (human, UniProt Q9UKJ1 20-303); test: cell-based or functional assay
# [2] = biological target: T2, human PILRB extracellular domain (recombinant) (human, UniProt Q9UKJ0 20-191); test: SPR, Biacore 8K, recombinant ECD
# T2 construct: also called hPILRB
# human PILRA G78 on cells [3] = biological target: T1, human PILRA G78 on cells; test: flow cytometry on HEK293 cells expressing hPILRA G78
# Protocol: Parental HEK293 cells were labeled with NucBlue Live ReadyProbes Reagent for 30 mins. […] Antibody binding to the cells was detected by FACS and median fluorescence intensity (MFI) was derived from data analysis performed with the FLOJO software (FIGS. 1A-1C).
# human PILRB on cells = biological target: T3, human PILRB on cells (human, UniProt Q9UKJ0 20-227); test: flow cytometry (MFI), CHO-K1 cells expressing hPILRB
# T3 construct: Expressed on CHO-K1 cells, or together with DAP12 on HEK293 cells (hPILRB-DAP12 OE HEK293); also called hPILRB; hPILRB-DAP12
# Protocol: Antibody binding to the cells was detected by FACS and MFI was derived from data analysis performed with the FLOJO software.
# [4] = biological target: T4, human PILRA G78 extracellular domain (recombinant hPILRA ECD) (human, UniProt Q9UKJ1 20-197); test: SPR, Biacore 8K; antibody captured via anti-human Fab, recombinant ECD injected; 1:1 fit;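 note: CM5 sensor chip, ECD analyte in threefold dilution series at 30 µL/min, 3 min association and 10 min dissociation, kon and koff fitted simultaneously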
# T4 construct: also called hPILRA G78
# [5] = biological target: T5, cynomolgus monkey PILRA extracellular domain (recombinant) (cynomolgus monkey); test: as above
# T5 construct: also called cynoPILRA; Cyno PILRA
# human PILRA G78 on cells [6] = biological target: T1, human PILRA G78 on cells; test: flow cytometry on HEK293 PILRA G78 cells with sialidase treatment
# Protocol: (§1) PILRA 78G or PILRA 78R expressing HEK293 cells were treated with SialEXO (Genovis). […] It is a combination of two sialidases acting on α2-3, α2-6 and α2-8 linkages. […] Cells were then washed twice and incubated and stained with NucBlue Live Stain for 30 mins at RT.
# human PILRA G78 on cells [7] = biological target: T1, human PILRA G78 on cells; test: flow cytometry on HEK293 PILRA G78 cells without sialidase treatment
# Protocol: as §1
# human PILRA R78 on cells [8] = biological target: T6, human PILRA R78 on cells (human, UniProt Q9UKJ1 20-303); test: flow cytometry on HEK293 PILRA R78 cells with sialidase treatment; with sialidase treatment
# T6 construct: also called hPILRA R78; PILRA 78R
# Protocol: as §1
# (§2) Following the same protocol, sialidase treatment was also performed on HEK cells expressing PILRA R78.
# human PILRA R78 on cells [9] = biological target: T6, human PILRA R78 on cells; test: flow cytometry on HEK293 PILRA R78 cells without sialidase treatment; without sialidase treatment
# Protocol: as §1, §2
# [10] = biological target: T5, cynomolgus monkey PILRA extracellular …; test: SPR, Biacore 8K, recombinant ECD
# T6 sequence (Q9UKJ1 20-303 limits assumed): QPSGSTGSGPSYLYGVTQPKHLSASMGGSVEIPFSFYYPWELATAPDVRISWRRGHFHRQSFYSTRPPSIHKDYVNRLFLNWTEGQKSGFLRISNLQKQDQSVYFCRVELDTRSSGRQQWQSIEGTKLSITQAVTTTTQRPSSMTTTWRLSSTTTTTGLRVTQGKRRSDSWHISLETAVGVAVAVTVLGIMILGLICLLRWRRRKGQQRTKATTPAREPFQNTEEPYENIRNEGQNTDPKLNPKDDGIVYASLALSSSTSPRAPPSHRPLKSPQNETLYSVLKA
# T5 sequence (chain, as listed by the source limits assumed): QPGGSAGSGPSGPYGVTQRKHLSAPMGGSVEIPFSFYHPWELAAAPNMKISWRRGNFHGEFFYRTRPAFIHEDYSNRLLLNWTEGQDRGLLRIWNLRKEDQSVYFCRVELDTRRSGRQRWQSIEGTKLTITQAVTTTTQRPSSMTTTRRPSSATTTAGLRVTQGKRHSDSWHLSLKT
# T4 sequence (Q9UKJ1 20-197 R78G limits assumed): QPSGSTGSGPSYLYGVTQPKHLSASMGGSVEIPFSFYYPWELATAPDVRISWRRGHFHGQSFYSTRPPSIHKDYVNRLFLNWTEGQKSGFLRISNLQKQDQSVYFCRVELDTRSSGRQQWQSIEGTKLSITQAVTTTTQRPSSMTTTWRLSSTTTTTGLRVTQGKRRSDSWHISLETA
# T2 sequence (Q9UKJ0 20-191 limits assumed): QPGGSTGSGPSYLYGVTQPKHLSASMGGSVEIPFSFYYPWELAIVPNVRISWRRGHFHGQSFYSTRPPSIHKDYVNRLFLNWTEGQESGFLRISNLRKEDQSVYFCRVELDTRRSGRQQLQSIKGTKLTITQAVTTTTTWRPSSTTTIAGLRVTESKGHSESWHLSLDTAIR
# T3 sequence (Q9UKJ0 20-227 limits assumed): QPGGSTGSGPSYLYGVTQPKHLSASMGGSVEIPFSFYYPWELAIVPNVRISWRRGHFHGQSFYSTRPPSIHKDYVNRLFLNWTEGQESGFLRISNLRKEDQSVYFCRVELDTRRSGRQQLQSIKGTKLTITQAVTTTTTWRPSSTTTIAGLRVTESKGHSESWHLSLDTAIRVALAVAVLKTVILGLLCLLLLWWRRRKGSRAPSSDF
# T1 sequence (Q9UKJ1 20-303 R78G limits assumed): as the sequence (Q9UKJ1 20-303 limits assumed) above, with R59G counted along it
"pSTAT3 Y705 induction, EC50 (nM) (human PILRA G78 on cells [1])","pSTAT3 Y705 induction, Fold Over Background (human PILRA G78 on cells [1]) [fold]",binding result [2],EC50 (human PILRA G78 on cells [3]) [nM],binding result (human PILRB on cells),Kd [4] [nM],Kd [5] [nM],EC50 (human PILRA G78 on cells [6]) [nM],EC50 (human PILRA G78 on cells [7]) [nM],EC50 (human PILRA R78 on cells [8]) [nM],EC50 (human PILRA R78 on cells [9]) [nM],binding result [10],Binder
1.98,14.7,no binding,24.9,no binding (tested: 100 nM),8.3,7.4,–,–,–,–,–,"Anti-PILRA antibody clone 4 (antibody, human IgG1, kappa, L234A L235A, V domains shown, also called Ab; Clone 4; Ab.4) VH: EVQLVESGGGLVQPGRSLRLSCAASGFTFDDYAIHWVRQAPGKGLEWVSGMSWNSGSIGYGDSVKGRFTISRDNAKNSLYLQMNSLRAEDTAFYYCAKDKSIGAAGRFDSWGQGTLVTVSS VL: not shown"
5.66,16.2,no binding,13.8,no binding (tested: 100 nM),2.3,0.91,1.8,6.8,5.6,14,–,"Anti-PILRA antibody clone 1 (antibody, V domains shown) VH: EVQLVESGGGLVQPGRSLRLSCAVSGFTFDDYAMHWVRQAPGKGLEWVSGFSWNSGSIGYPDSVKGRFTISRDNAKNSLYLQMNSLRAEDTAFYYCAKDKSISAAGRFDYWGQGTLVTVSS VL: DIQMTQSPSSLSASVGDRVTITCQASRRINNYLNWYQQKPGKAPKLLIYDASNLETGVPSRFTGSGSGTDFTLTISSLQPEDIATYYCQQYDNLPLTFGGGTKIKIK"
5.69,26.7,no binding,1.28,–,61,–,–,–,–,–,no binding,"Anti-PILRA antibody clone 10 (antibody, V domains shown, also called Ab; Clone 10) VH: EVQLVQSGAEIRKPGESLKISCKGSGYSFTTYWIAWVRQMPGKGLEWMGIIYPGDSDTRYSPSFQGQVTISADKSITTAYLQWSSLKASDTGIYYCARTYYYFSGSHWDAFDIWGQGTMVTVSS VL: DIQMTQSPSSVSAYVGDRVTITCRASQDIRDCLAWYQQKPGKAPKFLIYAASSFQSGVPSGFSGSGSGTDFTLTVTSLQPEDSATYYCQQTHSFPYTFGQGTKLEIK"
1.51,15.8,no binding,32.5,no binding (tested: 100 nM),0.66,19,9.8,17,0.9,1.3,–,"Anti-PILRA antibody clone 5 (antibody, human IgG1, kappa, L234A L235A, V domains shown, also called Ab; Clone 5; Ab.5) VH: QVQLVQSGAEVKKPGASVRVSCKASGYTFIGFYIHWVRQAPGQGLEWMGWINPESGDTTYAQKFQGRVTMTTDTSINTAYMDLNRLRSDDSAVYFCARGNWNFPDTFDFWGQGTMVIVSS VL: DIQMTQSPSSLSASVGDRVTITCRSSQSISIYLNWHQQIPGKAPKLLIYVASSLQSGIPSRFSGRGSGTEFTLTISSLQPEDFATYYCQQSYSAPFTFGPGTKVDIKR"
–,1.42,no binding,10.5,–,140,110,–,–,–,–,–,"Anti-PILRA antibody clone 11 (antibody, V domains shown) VH: EVKLVESGGGLVRPGGSQKLSCAVSGFAFSGYDMSWVRQTPEKRLEWVATISNGGRHTYYPDSVKGRFTISRDNARNTLYLQMSSLRSEDTALYYCARQKTWDVHAMDYWGQGTSVTVSS VL: QLVLTQSSSASFSLGASAKLTCTLSSQHSTYTIEWYQQQPLKPPKYVMELKKDGSHSTGDGIPDRFSGSSSGADRYLSISNIQPEDEAIYICGVGDTIKEQFVYVFGGGTKVTVL"

# — patent publication US20260109763A1 (DENALI THERAPEUTICS, published 2026)
